Patent publication US12397037B2, “Methods and compositions for immunomodulation” (CHILDREN'S MEDICAL CENTER CORPORATION, priority 2014, dated 2025)

System: U87MG cells
Test: Human Phospho-Kinase Array, U87MG cells treated with SEMA3F
Type: cell-based
Details: 30 minutes
Experimental: FIG. 28A depicts U87MG cells untreated (control) or following treatment with SEMA3F (640 ng/ml) for 30 minutes. Cell lysates were evaluated by phosphoprotein kinase antibody array. FIG. 28B depicts results of the array validated by Western blot analysis. FIG. 28C depicts U87MG cells treated with SEMA3F (640 ng/ml) as a time course up to 60 minutes and were analyzed by Western blot. FIGS. 28B-28C are representative of 3 independent experiments. FIG. 28D depicts U87MG, Jurkat and HUVEC cells treated with SEMA3F (200, 600, 1800 ng/ml, bars from left to right) for 15 minutes (grey bars) or 30 minutes (black bars); as a positive control, HUVEC were treated with VEGF-A (25 ng/ml) for 15 and 30 minutes. In addition, HUVEC were pre-treated with SEMA3F (1800 ng/ml) or PBS as a control for 30 minutes and subsequently VEGF-A (25 ng/ml) was added to the culture for 15 and 30 minutes. PI-3K activity was analyzed by ELISA according to the manufacturer's instructions. Data represent the mean±SD of 3 experiments.
SEMA3F inhibits Akt, mTOR, and S6K phosphorylation. To determine the effect of SEMA3F on intracellular signaling responses, levels of phosphokinases in the NRP2-expressing human glioblastoma cell line U87MG were profiled.
Phospho-kinase array: The Human Phospho-Kinase Array Kit (ARY003) was obtained from R&D Systems. U87MG cells were treated with SEMA3F which was previously found to induce cytoskeletal collapse and inhibit RhoA activity (6). […] Thus, a concentration at 640 ng/ml was optimized to analyze SEMA3F signaling pathways. Cell lysates were collected at 30 minutes after SEMA3F treatment and the levels of phosphoproteins were analyzed with this array, according to the manufacturer's instructions.

B1: SEMA3F: Human recombinant full-length His-Myc-tagged SEMA3F, secreted by transfected 293T cells and purified; class 3 semaphorin, NRP-2 ligand (protein, listed as Homo sapiens)
chain: MLVAGLLLWASLLTGAWPSFPTQDHLPATPRVRLSFKELKATGTAHFFNFLLNTTDYRILLKDEDHDRMYVGSKDYVLSLDLHDINREPLIIHWAASPQRIEECVLSGKDVNGECGNFVRLIQPWNRTHLYVCGTGAYNPMCTYVNRGRRAQATPWTQTQAVRGRGSRATDGALRPMPTAPRQDYIFYLEPERLESGKGKCPYDPKLDTASALINEELYAGVYIDFMGTDAAIFRTLGKQTAMRTDQYNSRWLNDPSFIHAELIPDSAERNDDKLYFFFRERSAEAPQSPAVYARIGRICLNDDGGHCCLVNKWSTFLKARLVCSVPGEDGIETHFDELQDVFVQQTQDVRNPVIYAVFTSSGSVFRGSAVCVYSMADIRMVFNGPFAHKEGPNYQWMPFSGKMPYPRPGTCPGGTFTPSMKSTKDYPDEVINFMRSHPLMYQAVYPLQRRPLVVRTGAPYRLTTIAVDQVDAADGRYEVLFLGTDRGTVQKVIVLPKDDQELEELMLEEVEVFKDPAPVKTMTISSKRQQLYVASAVGVTHLSLHRCQAYGAACADCCLARDPYCAWDGQACSRYTASSKRRSRRQDVRHGNPIRQCRGFNSNANKNAVESVQYGVAGSAAFLECQPRSPQATVKWLFQRDPGDRRREIRAEDRFLRTEQGLLLRALQLSDRGLYSCTATENNFKHVVTRVQLHVLGRDAVHAALFPPLSMSAPPPPGAGPPTPPYQELAQLLAQPEVGLIHQYCQGYWRHVPPSPREAPGAPRSPEPQDQKKPRNRRHHPPDT
modifications: His-Myc tag
notes: Human recombinant full-length His-Myc-tagged SEMA3F, secreted by transfected 293T cells and purified; class 3 semaphorin, NRP-2 ligand
intensity of dot/phosphoprotein p70 S6 Kinase (T421/S424) (SEMA3F 640 ng/ml, Image J): 0.299
Ratio AMPKa1 (T174) (SEMA3F vs Control, 640 ng/ml): 92.7
Ratio AMPKa2 (T172) (SEMA3F vs Control, 640 ng/ml): 94.5
Ratio Akt (S473) (SEMA3F vs Control, 640 ng/ml): 77.4
Ratio Akt (T308) (SEMA3F vs Control, 640 ng/ml): 92.6
Ratio CREB (S133) (SEMA3F vs Control, 640 ng/ml): 91.3
Ratio Chk-2 (T68) (SEMA3F vs Control, 640 ng/ml): 93.4
Ratio ERK1/2 (T202/Y204, T185/Y187) (SEMA3F vs Control, 640 ng/ml): 91.2
Ratio FAK (Y397) (SEMA3F vs Control, 640 ng/ml): 87.7
Ratio Fqr (Y412) (SEMA3F vs Control, 640 ng/ml): 94.1
Ratio Fyn (Y420) (SEMA3F vs Control, 640 ng/ml): 93.1
Ratio GSK-3a/b (S21/S9) (SEMA3F vs Control, 640 ng/ml): 91.0
Ratio HSP27 (S78/S82) (SEMA3F vs Control, 640 ng/ml): 94.0
Ratio Hck (Y411) (SEMA3F vs Control, 640 ng/ml): 91.4
Ratio JNK pan (T183/Y185, T221/Y223) (SEMA3F vs Control, 640 ng/ml): 91.5
Ratio Lck (Y394) (SEMA3F vs Control, 640 ng/ml): 94.2
Ratio Lyn (Y397) (SEMA3F vs Control, 640 ng/ml): 93.7
Ratio MEK1/2 (S218/S222, S222/S226) (SEMA3F vs Control, 640 ng/ml): 92.8
Ratio MSK1/2 (S376/S360) (SEMA3F vs Control, 640 ng/ml): 92.4
Ratio PLCq-1 (Y783) (SEMA3F vs Control, 640 ng/ml): 95.1
Ratio Paxillin (Y118) (SEMA3F vs Control, 640 ng/ml): 95.8
Ratio Pyk2 (Y402) (SEMA3F vs Control, 640 ng/ml): 93.1
Ratio RSK1/2 (S221/S227) (SEMA3F vs Control, 640 ng/ml): 97.8
Ratio RSK1/2/3 (S380/S386/S377) (SEMA3F vs Control, 640 ng/ml): 98.8
Ratio STAT1 (Y701) (SEMA3F vs Control, 640 ng/ml): 98.2
Ratio STAT2 (Y689) (SEMA3F vs Control, 640 ng/ml): 95.3
Ratio STAT3 (Y705) (SEMA3F vs Control, 640 ng/ml): 93.4
Ratio STAT4 (Y693) (SEMA3F vs Control, 640 ng/ml): 96.4
Ratio STAT5a (Y694) (SEMA3F vs Control, 640 ng/ml): 94.8
Ratio STAT5a/b (Y694/Y699) (SEMA3F vs Control, 640 ng/ml): 90.1
Ratio STAT5b (Y699) (SEMA3F vs Control, 640 ng/ml): 92.6
Ratio STAT6 (Y641) (SEMA3F vs Control, 640 ng/ml): 96.3
Ratio Src (Y419) (SEMA3F vs Control, 640 ng/ml): 91.0
Ratio TOR (S2448) (SEMA3F vs Control, 640 ng/ml): 91.8
Ratio Yes (Y426) (SEMA3F vs Control, 640 ng/ml): 94.6
Ratio b-Catenin (SEMA3F vs Control, 640 ng/ml): 91.6
Ratio c-Jun (S63) (SEMA3F vs Control, 640 ng/ml): 94.3
Ratio eNOS (S1177) (SEMA3F vs Control, 640 ng/ml): 93.9
Ratio p27 (T157) (SEMA3F vs Control, 640 ng/ml): 94.3
Ratio p27 (T198) (SEMA3F vs Control, 640 ng/ml): 94.0
Ratio p38a (T180/Y182) (SEMA3F vs Control, 640 ng/ml): 91.8
Ratio p53 (S15) (SEMA3F vs Control, 640 ng/ml): 96.7
Ratio p53 (S46) (SEMA3F vs Control, 640 ng/ml): 93.6
Ratio p53 (S392) (SEMA3F vs Control, 640 ng/ml): 94.0
Ratio p70 S6 Kinase (T229) (SEMA3F vs Control, 640 ng/ml): 100.0
Ratio p70 S6 Kinase (T389) (SEMA3F vs Control, 640 ng/ml): 95.6
Ratio p70 S6 Kinase (T421/S424) (SEMA3F vs Control, 640 ng/ml): 97.4
